Data from the supplement of paper PMC7125110.
± gives the standard error. For part of these data: Fewer inactive variants are shown than the library holds.

B1: glmS ribozyme (parent)
chain: AUAAAAGCGCCAGAACUACAGAAAUGUAGUUGACGAGGAGGAGGUUUAUCGAAUUUUCGGCGGAUGCCUCCAAA

What was measured:
Settings in all cases: with glucosamine-6-phosphate
glucosamine-6-phosphate [1] = variants of: B1; test: kcat; higher = faster cleavage; RNA array
Summary of the method: (§1)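 E. coli RNA polymerase transcribed barcoded ribozyme variants in situ on sequenced MiSeq chips, which were tracked via a hybridised Cy3 probe at 37 °C. Tiles were imaged over ~14 h after glucosamine-6-phosphate (40 μM to 10 mM) in HEPES/KCl/Mg(OAc)2 buffer was flowed in. Normalised per-tile medians were fit to one- or two-exponential decays for kobs, and kcat and KM came from weighted Michaelis–Menten fits.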

glucosamine-6-phosphate [2] = variants of: B1; test: self-cleavage kobs at 40 uM GlcN6P; higher = faster cleavage; RNA array
Summary of the method: as §1

glucosamine-6-phosphate [3] = variants of: B1; test: self-cleavage kobs at 640 uM GlcN6P; higher = faster cleavage; RNA array
Summary of the method: as §1

glucosamine-6-phosphate [4] = variants of: B1; test: self-cleavage kobs at 2500 uM GlcN6P; higher = faster cleavage; RNA array
Summary of the method: as §1

glucosamine-6-phosphate [5] = variants of: B1; test: self-cleavage kobs at 10000 uM GlcN6P; higher = faster cleavage; RNA array
Summary of the method: as §1

glucosamine-6-phosphate [6] = variants of: B1; test: KM; higher = weaker cofactor use; RNA array
Summary of the method: as §1

glucosamine-6-phosphate [7] = variants of: B1; test: self-cleavage kobs at 160 uM GlcN6P; higher = faster cleavage; RNA array
Summary of the method: as §1

Variant	kcat (glucosamine-6-phosphate [1]) [s⁻¹]	self-cleavage kobs at 40 uM GlcN6P (glucosamine-6-phosphate [2]) [s⁻¹]	self-cleavage kobs at 640 uM GlcN6P (glucosamine-6-phosphate [3]) [s⁻¹]	self-cleavage kobs at 2500 uM GlcN6P (glucosamine-6-phosphate [4]) [s⁻¹]	self-cleavage kobs at 10000 uM GlcN6P (glucosamine-6-phosphate [5]) [s⁻¹]	KM (glucosamine-6-phosphate [6]) [µM]	self-cleavage kobs at 160 uM GlcN6P (glucosamine-6-phosphate [7]) [s⁻¹]
A36U C67G C68G C71U	6.17e-05 ± 1.7e-05	4.88e-05 ± 1.9e-05	0.000121 ± 3e-05	5.55e-05 ± 1.8e-05	5.06e-05 ± 1.6e-05		
G37C A53C	1.74e-05 ± 7.2e-06						
G37A A48C	1.56e-05 ± 6e-07					1270 ± 290	< 1e-05
G35A C71G	< 1e-05		< 1e-05				< 1e-05
G37U G51C	< 1e-05				< 1e-05		
G38A C58G	1.16e-05 ± 3.2e-06				< 1e-05		< 1e-05
G32A G66C	5.52e-05 ± 1.5e-06			3.72e-05 ± 1.6e-05	4.9e-05 ± 1.4e-05	1250 ± 160	
G37U U45A	< 1e-05						< 1e-05
G32U U45A	0.00202 ± 0.00071	0.000103 ± 3.9e-05	0.000279 ± 6.8e-05	0.000762 ± 0.00034	0.00155 ± 0.0003	3440 ± 1700	9.56e-05 ± 2.1e-05
G32C U55G	0.000137 ± 1.4e-05			2.64e-05 ± 8.4e-06	6.68e-05 ± 1.2e-05		
G32C U55C	0.000106 ± 1.3e-05			2.78e-05 ± 1.4e-05	6.12e-05 ± 1.1e-05	7360 ± 1900	< 1e-05
G32C C58G	8.83e-05 ± 1.4e-05			4.79e-05 ± 7.8e-06	6.81e-05 ± 9.4e-06	2580 ± 1100	
A33C G38U	< 1e-05	< 1e-05	< 1e-05		< 1e-05		< 1e-05
A33U G41U	2.33e-05 ± 1.9e-06	< 1e-05		2.26e-05 ± 8e-06	2.14e-05 ± 6.8e-06		< 1e-05
A33U C67U	4.33e-05 ± 9.7e-06		3.39e-05 ± 1.5e-05	2.49e-05 ± 6.9e-06	4.16e-05 ± 7.3e-06		
A33U C67A	7.68e-05 ± 3.3e-06			2.58e-05 ± 7.7e-06	5.17e-05 ± 6e-06	4870 ± 530	
C34A G38C	< 1e-05		< 1e-05				
G32U G51U U55A	1.45e-05 ± 2.5e-06						
A36G C70U	3.34e-05 ± 3.8e-06			3.3e-05 ± 1.3e-05	2.96e-05 ± 1.1e-05		
G37C G38U	< 1e-05	< 1e-05	< 1e-05	< 1e-05			
A36G C68G	1.27e-05 ± 2.3e-06						

Variant	kcat (glucosamine-6-phosphate [1]) [s⁻¹]	self-cleavage kobs at 40 uM GlcN6P (glucosamine-6-phosphate [2]) [s⁻¹]	self-cleavage kobs at 640 uM GlcN6P (glucosamine-6-phosphate [3]) [s⁻¹]	self-cleavage kobs at 2500 uM GlcN6P (glucosamine-6-phosphate [4]) [s⁻¹]	self-cleavage kobs at 10000 uM GlcN6P (glucosamine-6-phosphate [5]) [s⁻¹]	KM (glucosamine-6-phosphate [6]) [µM]	self-cleavage kobs at 160 uM GlcN6P (glucosamine-6-phosphate [7]) [s⁻¹]
G32U C71G	0.000107 ± 7.3e-06		6.13e-05 ± 1.6e-05	7.51e-05 ± 9.8e-06	0.000102 ± 8.2e-06	741 ± 280	
G32U C71U	0.00136 ± 0.0003		0.000146 ± 1.1e-05	0.00037 ± 3.3e-05	0.000927 ± 7.7e-05	5540 ± 1700	6.14e-05 ± 1.3e-05
C34G U46G C50U C67U	1.54e-05 ± 5.4e-06						
A33U U55A	0.000138 ± 2.3e-05			7.49e-05 ± 6.9e-06	0.000105 ± 7.9e-06	2730 ± 1200	
G38C A52C	< 1e-05	< 1e-05			< 1e-05		< 1e-05
C34U U54C C68G	1.64e-05 ± 4.9e-06						
C34U G60C	< 1e-05	< 1e-05					
G32A U56C	0.000235 ± 2.8e-05		4.72e-05 ± 1e-05	9.95e-05 ± 1.6e-05	0.000191 ± 3.1e-05	2950 ± 670	
G32A U56A	0.000939 ± 0.0002		9.47e-05 ± 1.5e-05	0.000295 ± 4.3e-05	0.000619 ± 9.9e-05	5360 ± 1600	4.57e-05 ± 1.5e-05
G32A U69A	9.02e-05 ± 2.8e-05			9.73e-05 ± 1.8e-05	7.45e-05 ± 1.1e-05		
A33U C70G	1.5e-05 ± 1.8e-06						
G38C G51C	1.04e-05 ± 4.5e-06						
A33U G41A U54G	3.66e-05 ± 1.4e-06				2.88e-05 ± 1.2e-05	2720 ± 360	
G32C C67G	2.22e-05 ± 2.6e-06				1.85e-05 ± 8.6e-06	2060 ± 980	
G32C G60A	< 1e-05	< 1e-05					
A36U A39C	< 1e-05	< 1e-05		< 1e-05	< 1e-05		< 1e-05
A36G U55C	1.01e-05 ± 4e-06						
G35U U65A	< 1e-05	< 1e-05	< 1e-05	< 1e-05			
G37U U57G	< 1e-05			< 1e-05			
G37U U57C	< 1e-05			< 1e-05	< 1e-05		
A33U G59U	< 1e-05	< 1e-05	< 1e-05	< 1e-05			

Variant	kcat (glucosamine-6-phosphate [1]) [s⁻¹]	self-cleavage kobs at 40 uM GlcN6P (glucosamine-6-phosphate [2]) [s⁻¹]	self-cleavage kobs at 640 uM GlcN6P (glucosamine-6-phosphate [3]) [s⁻¹]	self-cleavage kobs at 2500 uM GlcN6P (glucosamine-6-phosphate [4]) [s⁻¹]	self-cleavage kobs at 10000 uM GlcN6P (glucosamine-6-phosphate [5]) [s⁻¹]	KM (glucosamine-6-phosphate [6]) [µM]	self-cleavage kobs at 160 uM GlcN6P (glucosamine-6-phosphate [7]) [s⁻¹]
G32U U49G	5.32e-05 ± 7.1e-06	< 1e-05		4.54e-05 ± 1.2e-05	4.7e-05 ± 6.6e-06		
C34U G43A	< 1e-05	< 1e-05					< 1e-05
A33U U69C	7.22e-05 ± 1.2e-06			5.12e-05 ± 1.2e-05	6.49e-05 ± 9.5e-06	1080 ± 92	
G37A U47G	0.000419 ± 0.0001		0.000127 ± 1.6e-05	0.000274 ± 4.4e-05	0.000396 ± 5.4e-05	1250 ± 600	9.69e-05 ± 1.9e-05
G37A U47C	0.000634 ± 0.00022		0.000181 ± 3.8e-05	0.000398 ± 7.7e-05	0.00103 ± 0.00045		8.31e-05 ± 2.2e-05
G37C C50A C58A U69A	5.12e-05 ± 2.4e-05		8.62e-05 ± 3.4e-05				
G38C C70A	1.54e-05 ± 2.7e-06						
G37A A42G	0.00683 ± 0.0013	8.75e-05 ± 1.5e-05	0.000936 ± 0.00014	0.00251 ± 0.00044	0.00549 ± 0.00094	3670 ± 920	0.000301 ± 8.8e-05
G37A A42U	0.000872 ± 0.00012	2.47e-05 ± 1.1e-05	0.000193 ± 2.3e-05	0.00052 ± 6.6e-05	0.000669 ± 9.4e-05	2220 ± 480	5.06e-05 ± 1.2e-05
G37C C70G	1.47e-05 ± 4.3e-06						
A33U A39C	1.74e-05 ± 2.5e-06					3650 ± 1600	
G37A G38C C67U C68G C71U	2.2e-05 ± 4e-06						
A36U G37A	1.19e-05 ± 3e-06						
G38A G59C	< 1e-05	< 1e-05	< 1e-05		< 1e-05		
A33U C71U	0.000125 ± 1.3e-05		3.01e-05 ± 7.2e-06	5.58e-05 ± 5.4e-06	0.0001 ± 9.1e-06	2840 ± 690	
A36C C58A	1.11e-05 ± 3.9e-06	< 1e-05					
G35A G38U	< 1e-05						< 1e-05
G35A G38C	< 1e-05		< 1e-05				
G32C A48U	< 1e-05	< 1e-05					
G37A C71U	0.00282 ± 0.00026	4.51e-05 ± 4.2e-06	0.000478 ± 4.3e-05	0.0015 ± 0.00028	0.00225 ± 0.00014	2690 ± 370	0.000172 ± 1.9e-05
G32A C71U	0.00395 ± 0.001	3.68e-05 ± 5.2e-06	0.000487 ± 4.1e-05	0.00122 ± 0.00011	0.00326 ± 0.00033	4470 ± 1500	0.000159 ± 1.6e-05

Variant	kcat (glucosamine-6-phosphate [1]) [s⁻¹]	self-cleavage kobs at 40 uM GlcN6P (glucosamine-6-phosphate [2]) [s⁻¹]	self-cleavage kobs at 640 uM GlcN6P (glucosamine-6-phosphate [3]) [s⁻¹]	self-cleavage kobs at 2500 uM GlcN6P (glucosamine-6-phosphate [4]) [s⁻¹]	self-cleavage kobs at 10000 uM GlcN6P (glucosamine-6-phosphate [5]) [s⁻¹]	KM (glucosamine-6-phosphate [6]) [µM]	self-cleavage kobs at 160 uM GlcN6P (glucosamine-6-phosphate [7]) [s⁻¹]
A33C G66A	0.000291 ± 4.1e-05		6.35e-05 ± 9.2e-06	0.00013 ± 2.3e-05	0.000257 ± 4.6e-05	2470 ± 580	
A36U U57A G66C	< 1e-05						
A33C C58G	1.09e-05 ± 3.4e-06						
A36U U69C	2.28e-05 ± 3.7e-06						
G32U A36U	< 1e-05	< 1e-05			< 1e-05		< 1e-05
G37A G66C	0.000578 ± 0.0001		0.000117 ± 1.8e-05	0.000357 ± 5.8e-05	0.000439 ± 8.7e-05	2250 ± 630	4.54e-05 ± 1.4e-05
G37A A64G	0.00317 ± 0.0014	6.01e-05 ± 1.3e-05	0.000337 ± 6.8e-05	0.000977 ± 0.00019	0.002 ± 0.00025		5.16e-05 ± 2.1e-05
A36U C50A	< 1e-05						< 1e-05
G32C A53U	0.000101 ± 5.9e-06	< 1e-05		2.59e-05 ± 6.8e-06	5.79e-05 ± 5e-06	7510 ± 930	< 1e-05
G32C A53G	0.000158 ± 4.6e-06		2.67e-05 ± 9.1e-06	6.68e-05 ± 8.8e-06	0.000119 ± 1.5e-05	3340 ± 200	
G32C A53C	3.63e-05 ± 2.4e-06	< 1e-05	< 1e-05				< 1e-05
A33G U69A	3.15e-05 ± 1.4e-05						4.13e-05 ± 1.5e-05
C34U C50A	1.45e-05 ± 5.7e-06						
G32A G60U	< 1e-05				< 1e-05		< 1e-05
A36C A64U	1.13e-05 ± 3.6e-06	< 1e-05	< 1e-05				
G37A U54G	0.00267 ± 0.00094	6.88e-05 ± 1.3e-05	0.000413 ± 9.4e-05	0.000936 ± 0.00022	0.00234 ± 0.00032		0.000132 ± 2.9e-05
A33G C68A	1.39e-05 ± 1.5e-06						
A36U C67U	< 1e-05						
